1 molecule from PMC9976900 (Nucleic Acids Research, 2022) can be followed below.

Assay [1] addresses T1, Unr CSD789 (A756-D990) (Drosophila, UniProt B7Z0E2 756-990).
T1 sequence (looked up): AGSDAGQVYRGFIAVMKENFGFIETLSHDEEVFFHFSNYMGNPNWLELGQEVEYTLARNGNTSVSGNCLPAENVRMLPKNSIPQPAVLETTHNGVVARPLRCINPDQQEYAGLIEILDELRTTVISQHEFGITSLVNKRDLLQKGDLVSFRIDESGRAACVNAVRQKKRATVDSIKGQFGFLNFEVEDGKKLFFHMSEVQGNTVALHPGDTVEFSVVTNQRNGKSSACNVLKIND
Kind of assay: NMR titration.

Assay [2] addresses T2, Unr CSD78 (A756-K922) (Drosophila, UniProt B7Z0E2 756-922).
T2 sequence (looked up): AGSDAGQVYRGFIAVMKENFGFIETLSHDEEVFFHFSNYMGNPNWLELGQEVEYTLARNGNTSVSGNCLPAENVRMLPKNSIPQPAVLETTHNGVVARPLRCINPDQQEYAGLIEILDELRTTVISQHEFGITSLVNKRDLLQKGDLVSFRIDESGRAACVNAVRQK
Kind of assay: NMR titration.

B1: pAbp RRM3 (G176-A263) (domain or fragment)
chain: not shown
In the case of B1, the binding result in assay [1] and in assay [2] was “binds” throughout.
